Experimental findings from article doi:10.1101/2020.06.17.153486 are described below.

The target of assay [1] is SARS-CoV-2 spike trimer (S trimer), soluble ectodomain (SARS-CoV-2) (UniProt P0DTC2). Briefly: cryo-EM structure.
Assay [2] has as its target SARS-CoV-2 spike trimer (S trimer), soluble ectodomain (SARS-CoV-2, Wuhan-Hu-1 type). As to the kind of experiment: cryo-EM structure.

2-43 Fab: in assay [1], the stoichiometry N (Fab per trimer) stood at 3.
In the case of 4-8 Fab, the stoichiometry N (Fab per trimer) in assay [2] stood at 3.
